Our source for the enrichment values is publication PMC13397619.

First the molecules themselves.
B1: NLV2 TCR alpha chain (CDR3α only) (parent)
chain: AGPMKTSYDKVI
partner: MLVPMVATV

The experiment covers variants of B1. Kind of experiment: T-Switch: Jurkat TCRβ−/− cells expressing a CDR3 saturation-mutagenesis library, stained with two peptide-HLA-A*02:01 tetramers (original and novel peptide) plus anti-CD3, FACS-sorted into four gates, gDNA sequenced. The settings on record: with HLA-A*02:01 with peptide … (NLV 3-1, the novel peptide), tetramers 1 µg/mL, 30 min on ice, SP, DP and SW gates expanded about 10 days between rounds ('two to three rounds of selection' in the Methods), gate SW: higher = more of the variant in the gate that binds the novel peptide and not the original one = switched binding. Fold enrichment of the CDR3 variant in one FACS gate of a two-tetramer stain, unresolved parent, parent is a CDR3 fragment, scale: fold enrichment, numbering: sequential-on-construct, sequence starts at 1.
Regarding […] (CDR3 as printed); Y8L derived by comparing it with the table's wild-type CDR3 AGPMKTSYDKVI, the enrichment stood at 0.

In the case of […] (CDR3 as printed); T6W derived by comparing it with the table's wild-type CDR3 AGPMKTSYDKVI, the enrichment was determined as 0. For […] (CDR3 as printed); T6C derived by comparing it with the table's wild-type CDR3 AGPMKTSYDKVI, the enrichment was determined as 0. For the variant […] (CDR3 as printed); S7T derived by comparing it with the table's wild-type CDR3 AGPMKTSYDKVI, the enrichment was 0. On to […] (CDR3 as printed); S7K derived by comparing it with the table's wild-type CDR3 AGPMKTSYDKVI, for which the enrichment came out at 0. Take […] (CDR3 as printed); S7D derived by comparing it with the table's wild-type CDR3 AGPMKTSYDKVI: the enrichment was 0. For the variant […] (CDR3 as printed); T6K derived by comparing it with the table's wild-type CDR3 AGPMKTSYDKVI, the enrichment amounted to 0.282.

[…] (CDR3 as printed); P3H derived by comparing it with the table's wild-type CDR3 AGPMKTSYDKVI: the enrichment was found to be 0. Consider […] (CDR3 as printed); P3I derived by comparing it with the table's wild-type CDR3 AGPMKTSYDKVI, for which the enrichment is 0. Then […] (CDR3 as printed); Y8C derived by comparing it with the table's wild-type CDR3 AGPMKTSYDKVI, with 0; and […] (CDR3 as printed); T6E derived by comparing it with the table's wild-type CDR3 AGPMKTSYDKVI, with 0; and […] (CDR3 as printed); P3T derived by comparing it with the table's wild-type CDR3 AGPMKTSYDKVI, with 0. For […] (CDR3 as printed); V11T derived by comparing it with the table's wild-type CDR3 AGPMKTSYDKVI, the enrichment stood at 0. Regarding […] (CDR3 as printed); V11L derived by comparing it with the table's wild-type CDR3 AGPMKTSYDKVI, the enrichment came to 0. As for […] (CDR3 as printed); T6I derived by comparing it with the table's wild-type CDR3 AGPMKTSYDKVI, the enrichment turned out to be 0. Regarding […] (CDR3 as printed); V11C derived by comparing it with the table's wild-type CDR3 AGPMKTSYDKVI, the enrichment was 0.

For the variant […] (CDR3 as printed); V11Q derived by comparing it with the table's wild-type CDR3 AGPMKTSYDKVI, the enrichment stood at 0. Then […] (CDR3 as printed); Y8P derived by comparing it with the table's wild-type CDR3 AGPMKTSYDKVI, with 0; and […] (CDR3 as printed); M4N derived by comparing it with the table's wild-type CDR3 AGPMKTSYDKVI, with 0.

Regarding […] (CDR3 as printed); P3E derived by comparing it with the table's wild-type CDR3 AGPMKTSYDKVI, the enrichment amounted to 0.

Take […] (CDR3 as printed); P3N derived by comparing it with the table's wild-type CDR3 AGPMKTSYDKVI: the enrichment was 0. In the case of […] (CDR3 as printed); M4L derived by comparing it with the table's wild-type CDR3 AGPMKTSYDKVI, the enrichment is 0. In the case of […] (CDR3 as printed); V11P derived by comparing it with the table's wild-type CDR3 AGPMKTSYDKVI, the enrichment amounted to 0. On to […] (CDR3 as printed); T6G derived by comparing it with the table's wild-type CDR3 AGPMKTSYDKVI, for which the enrichment is 0. In the case of […] (CDR3 as printed); P3F derived by comparing it with the table's wild-type CDR3 AGPMKTSYDKVI, the enrichment stood at 0.

For the variant […] (CDR3 as printed); M4I derived by comparing it with the table's wild-type CDR3 AGPMKTSYDKVI, the enrichment turned out to be 0.

With […] (CDR3 as printed); T6Q derived by comparing it with the table's wild-type CDR3 AGPMKTSYDKVI, the enrichment is 0. Consider […] (CDR3 as printed); S7E derived by comparing it with the table's wild-type CDR3 AGPMKTSYDKVI, for which the enrichment turned out to be 0. Then […] (CDR3 as printed); S7N derived by comparing it with the table's wild-type CDR3 AGPMKTSYDKVI, with 0.

For the variant […] (CDR3 as printed); T6F derived by comparing it with the table's wild-type CDR3 AGPMKTSYDKVI, the enrichment turned out to be 0. Then […] (CDR3 as printed); Y8T derived by comparing it with the table's wild-type CDR3 AGPMKTSYDKVI, with 0; and […] (CDR3 as printed); P3D derived by comparing it with the table's wild-type CDR3 AGPMKTSYDKVI, with 0. In the case of […] (CDR3 as printed); T6R derived by comparing it with the table's wild-type CDR3 AGPMKTSYDKVI, the enrichment stood at 0. Then […] (CDR3 as printed); V11F derived by comparing it with the table's wild-type CDR3 AGPMKTSYDKVI, with 0; and […] (CDR3 as printed); V11R derived by comparing it with the table's wild-type CDR3 AGPMKTSYDKVI, with 0; and […] (CDR3 as printed); T6D derived by comparing it with the table's wild-type CDR3 AGPMKTSYDKVI, with 0. In the case of […] (CDR3 as printed); S7L derived by comparing it with the table's wild-type CDR3 AGPMKTSYDKVI, the enrichment came out at 0.

Regarding […] (CDR3 as printed); S7Y derived by comparing it with the table's wild-type CDR3 AGPMKTSYDKVI, the enrichment came out at 0. For […] (CDR3 as printed); M4G derived by comparing it with the table's wild-type CDR3 AGPMKTSYDKVI, the enrichment was 0. Turning to […] (CDR3 as printed); S7V derived by comparing it with the table's wild-type CDR3 AGPMKTSYDKVI, the enrichment came out at 0. As for […] (CDR3 as printed); Y8H derived by comparing it with the table's wild-type CDR3 AGPMKTSYDKVI, the enrichment was determined as 0. As to […] (CDR3 as printed); M4S derived by comparing it with the table's wild-type CDR3 AGPMKTSYDKVI, the enrichment came to 0. Turning to […] (CDR3 as printed); V11Y derived by comparing it with the table's wild-type CDR3 AGPMKTSYDKVI, the enrichment is 0. In the case of […] (CDR3 as printed); Y8D derived by comparing it with the table's wild-type CDR3 AGPMKTSYDKVI, the enrichment turned out to be 0.474.

[…] (CDR3 as printed); P3Y derived by comparing it with the table's wild-type CDR3 AGPMKTSYDKVI: the enrichment worked out at 0. Turning to […] (CDR3 as printed); Y8R derived by comparing it with the table's wild-type CDR3 AGPMKTSYDKVI, the enrichment was determined as 0. […] (CDR3 as printed); T6A derived by comparing it with the table's wild-type CDR3 AGPMKTSYDKVI: the enrichment was determined as 0. […] (CDR3 as printed); S7H derived by comparing it with the table's wild-type CDR3 AGPMKTSYDKVI: the enrichment stood at 0. On to […] (CDR3 as printed); V11N derived by comparing it with the table's wild-type CDR3 AGPMKTSYDKVI, for which the enrichment is 0. In the case of […] (CDR3 as printed); S7C derived by comparing it with the table's wild-type CDR3 AGPMKTSYDKVI, the enrichment stood at 0. Take […] (CDR3 as printed); Y8K derived by comparing it with the table's wild-type CDR3 AGPMKTSYDKVI: the enrichment stood at 0. Then […] (CDR3 as printed); S7F derived by comparing it with the table's wild-type CDR3 AGPMKTSYDKVI, with 0; and […] (CDR3 as printed); T6N derived by comparing it with the table's wild-type CDR3 AGPMKTSYDKVI, with 0; and […] (CDR3 as printed); Y8F derived by comparing it with the table's wild-type CDR3 AGPMKTSYDKVI, with 0. As for […] (CDR3 as printed); P3V derived by comparing it with the table's wild-type CDR3 AGPMKTSYDKVI, the enrichment came to 0.657.
